Key:
[1] = molecular target: T1, human Siglec-8 (full-length, on cells) (human, UniProt Q9NYZ4 17-499); assay: flow cytometry, CHO cells transfected with human Siglec-8, anti-human Fc-gamma secondary, Median RL1-H
T1 construct: Used for full-length human Siglec-8 transiently expressed on CHO or 293 cells and for native Siglec-8 on primary human eosinophils
Method: In additional studies, the parental llama G2 sequence was humanized and multivalent hzSiglec8-G2v14-Fc antibodies were cloned with a reduced effector function xELL human Fc. Binding of bivalent (cx11422; SEQ ID NO: 5 linked to an Fc xELL via linker 2), tetravalent (cx11580; SEQ ID NO: 9 linked to an Fc xELL via linker 2), and hexavalent (cx11579; SEQ ID NO: 10 linked to an Fc xELL via linker 2) hzSiglec8-G2v14-Fc antibodies were assessed by flow cytometry using CHO cells transfected with human Siglec-8. A titration series of the fusion proteins were incubated with the Siglec8-expressing CHO cells (5×10⁴ cells/well) for 30 minutes at 4° C. in FACS Buffer (PBS 1% BSA, 0.1% NaN3 pH 7.4) in 96 well plates. Following one 150 μL wash with FACS buffer, an APC-conjugated anti-human Fcγ specific secondary antibody (Jackson ImmunoResearch) was added, and cells were incubated for 30 minutes at 4° C. Following one additional wash in FACS buffer, bound antibodies were detected via flow cytometry (iQue Intellicyte).
The calculated affinity was similar between the bivalent, tetravalent, and hexavalent hzSiglec8-G2v14-Fc antibodies. The observed Bmax was reduced with increasing valency as anticipated, due the fact that the Fc portion of the antibody was detected in this assay and the ratio of Fc regions to anti-Siglec-8 binding domains is inverse to valency.

[2] = molecular target: T1, human Siglec-8 (full-length, on cells); assay: flow cytometry, CHO cells transiently transfected with full-length human Siglec-8, A647 anti-human Fc-gamma secondary, Mean RL1-H
Method: Binding of the anti-human Siglec-8 VHHs, B12, D1, E2, and G2, as a bivalent VHH-hIgG1-xELL-Fc (VHH of SEQ ID NO: 49, 55, 61, and 1, respectively linked to an Fc xELL via linker 2, these constructs are also designated cx8982, cx8983, cx8984, and cx10382, respectively) was determined by flow cytometry using CHO cells that had been transiently transfected with full-length human Siglec-8. Binding specificity was assessed using untransfected (UT) CHO cells as a control. For the binding assays, 50,000 Siglec-8 CHOs or UT CHOs were seeded in a 96-well plate and a titration of anti-Siglec8-VHH-xELL was added in FACS Buffer (PBS 1% BSA, 0.1% NaN3 pH 7.4) incubating for 30 minutes at 4° C. After washing, the plates were incubated with an A647-conjugated anti-human Fcγ specific secondary antibody (Jackson ImmunoResearch) diluted 1:2000 in FACS buffer for 30 minutes at 4° C. The plates were washed, and binding was determined by flow cytometry quantitating anti-human A647 mean fluorescent intensity using an Intellicyt iQue Plus.

[3] = molecular target: T1, human Siglec-8 (full-length, on cells); assay: flow cytometry on human eosinophils (CD16- CCR3+) from whole blood, anti-human AF647 secondary, MFI
Description: To determine if increasing the valency of Siglec-8 antibodies could enhance agonist activity, the parental llama B12, D1 and E2 VHH sequences were used to generate tetravalent (Tet-B12 (cx8467; SEQ ID NO:50 linked to an Fc), Tet-D1 (cx8469; SEQ ID NO:56 linked to an Fc), and Tet-E2 (cx8463; SEQ ID NO:62 linked to an Fc)) and hexavalent (Hex-B12 (cx8466; SEQ ID NO:51 linked to an Fc), Hex-D1 (cx8523; SEQ ID NO:57 linked to an Fc), and Hex-E2 (cx8522; SEQ ID NO:165 linked to an Fc)), Siglec8-VHH-Fc antibodies linked to a reduced effector function xELL human Fc region via linker 2. The bivalent (Bi-B12 (cx8982), Bi-D1 (cx8983) and Bi-E2 (cx8984)), tetravalent, and hexavalent Siglec8-VHH-Fc antibodies were assessed by flow cytometry for binding to eosinophils (CD16⁻ CCR3⁺). […] Cells were spun down and then resuspended in titrated test articles starting at 200 nM 1:4 and incubated for 30 minutes at 4° C. before being washed twice and resuspended in secondary mixture (2*; anti-CCR3 FITC, anti-human AF647, PI, anti-CD16 BV605) and incubated for 30 minutes at 4° C., washed twice, and bound antibodies were detected via flow cytometry (Novocyte). […]

T1 sequence (Q9NYZ4 17-499): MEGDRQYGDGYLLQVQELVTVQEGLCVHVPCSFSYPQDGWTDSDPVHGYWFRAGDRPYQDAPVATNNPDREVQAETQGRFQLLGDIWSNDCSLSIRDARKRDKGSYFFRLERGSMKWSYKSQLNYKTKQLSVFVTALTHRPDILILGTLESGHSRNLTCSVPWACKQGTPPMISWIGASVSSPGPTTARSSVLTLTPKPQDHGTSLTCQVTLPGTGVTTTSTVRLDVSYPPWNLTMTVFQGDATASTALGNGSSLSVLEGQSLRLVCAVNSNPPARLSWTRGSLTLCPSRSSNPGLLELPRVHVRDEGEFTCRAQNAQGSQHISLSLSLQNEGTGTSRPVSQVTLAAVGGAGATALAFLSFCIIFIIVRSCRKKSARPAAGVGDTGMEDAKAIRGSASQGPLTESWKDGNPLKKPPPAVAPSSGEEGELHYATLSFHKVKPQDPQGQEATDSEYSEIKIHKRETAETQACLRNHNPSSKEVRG

B1: tetravalent hzSiglec8-G2v14-Fc antibody, Fc xELL (cx11580) (Fc fusion)
chain: EVQLLESGGGEVQPGGSLRLSCAASGSISIFSMYVVAWYRQAPGKEREWVAFIQRGGTANYAESAKGRFTISRDNAKNTVYLQMSSLRAEDTAVYYCNYINTDNEIGGPWGQGTLVTVKPGGSGGSEVQLLESGGGEVQPGGSLRLSCAASGSISIFSMYVVAWYRQAPGKEREWVAFIQRGGTANYAESAKGRFTISRDNAKNTVYLQMSSLRAEDTAVYYCNYINTDNEIGGPWGQGTLVTVKPGGGGDKTHTCPPCPAPGGPSVFLFPPKPKDTLMISRTPEVTCVVVDVSHEDPEVKFNWYVDGVEVHNAKTKPREEQYNSTYRVVSVLTVLHQDWLNGKEYKCKVSNKALPAPIEKTISKAKGQPREPQVYTLPPSRDELTKNQVSLTCLVKGFYPSDIAVEWESNGQPENNYKTTPPVLDSDGSFFLYSKLTVDKSRWQQGNVFSCSVMHEALHNHYTQKSLSLSPGK
In the case of B1, the “EC50 (read off the curve)” value [1] is reported as ~0.03 nM.

B2: anti-Siglec8-E2-xELL, bivalent VHH-hIgG1-xELL-Fc (cx8984) (Fc fusion)
chain: QVQLVESGGGLVQPGGSLRLSCATSGIIFTSNVINWYRQAPGKQREFVAFITSITSGQSTMYADAVKGRFTVSRDNDKNIGYLQMTSLQPEDTARYVCNVGAYWGQGTQVTVKPGGGGDKTHTCPPCPAPGGPSVFLFPPKPKDTLMISRTPEVTCVVVDVSHEDPEVKFNWYVDGVEVHNAKTKPREEQYNSTYRVVSVLTVLHQDWLNGKEYKCKVSNKALPAPIEKTISKAKGQPREPQVYTLPPSRDELTKNQVSLTCLVKGFYPSDIAVEWESNGQPENNYKTTPPVLDSDGSFFLYSKLTVDKSRWQQGNVFSCSVMHEALHNHYTQKSLSLSPGK
notes: also called Bi-E2
With B2 the “EC50 (read off the curve)” value [2] was ~0.3 nM.

B3: anti-Siglec8-D1-xELL, bivalent VHH-hIgG1-xELL-Fc (cx8983) (Fc fusion)
chain: QVQLVESGGGLVQPGGSLRLSCAASGSIASIHGMGWYRQAPGKERELVAAIAGEGSTYYADSVKGRFTISRDFAKNTLYLQMNNLKAEDTAMYYCANNDERDDYWGQGTQVTVKPGGGGDKTHTCPPCPAPGGPSVFLFPPKPKDTLMISRTPEVTCVVVDVSHEDPEVKFNWYVDGVEVHNAKTKPREEQYNSTYRVVSVLTVLHQDWLNGKEYKCKVSNKALPAPIEKTISKAKGQPREPQVYTLPPSRDELTKNQVSLTCLVKGFYPSDIAVEWESNGQPENNYKTTPPVLDSDGSFFLYSKLTVDKSRWQQGNVFSCSVMHEALHNHYTQKSLSLSPGK
notes: also called Bi-D1
For B3, the “EC50 (read off the curve)” value [3] was ~0.05 nM.

Source: patent publication US20230406925A1 (PHYLAXIS BIOSCIENCE, published 2023)
